According to patent US20110300138A1 (published 2011):

B1: K1-18 IgG (antibody, V domains shown)
VH: EVQLVQSGAEVKKPGESLKISCKGSGYSFTNYWIGWVRQMPGKGLEWMGIIYPYDSDTRYSPSFEGQVTISADKSIRTAYLHWSSLKASDTAMYYCVRPRDGSYPYDAFDIWGQGTMVTVSS
VL: EIVLTQSPGTLSLSPGERATLSCRASQSVSNNYLAWYQQKPGQAPRLLIYGASSRATGIPDRFSGSGSGTDFTLTISRLEPEDFAVYYCQHCGSSLRAFGQGTKVEIKR
notes: Human IgG1 kappa purified from hetero-hybridoma supernatant; also called human monoclonal autoantibody to the TSHR with TSH agonist activity
B2: K1-18 Fab (Fab, V domains shown)
VH: B1 VH
VL: B1 VL
B3: K1-70 IgG (antibody, V domains shown)
VH: EVQLVQSGAEVKKPGQSLKISCKASGYSLTDNWIGWVRQKPGKGLEWMGIIYPGDSDTRYSPSFQGQVTISADKSINTAYLQWSSLKASDTAIYYCVGLDWNYNPLRYWGPGTLVTVSS
VL: QSVLTQPPSVSAAPGQKVTISCSGSSSDIGSNYVSWYQQFPGTAPKLLIYDNNKRPSAIPDRFSGSKSGTSATLGITGLQTGDEADYYCGTWDSRLGIAVFGGGTQLTVLG
notes: Human IgG1 lambda purified from hetero-hybridoma supernatant; also called human monoclonal autoantibody to the TSHR with TSH antagonist activity
B4: K1-70 Fab (Fab, V domains shown)
VH: B3 VH
VL: B3 VL

Legend:
[1] = target: T1, human TSH receptor (full length), coated on tubes (human, UniProt P16473 22-764); assay: inhibition of 125I-K1-70 Fab (competitor) binding to TSHR coated tubes; 3 µg/mL in assay buffer
T1 construct: TSHR coated tubes as described in WO2004/050708A2; The receptor is full length and held on plastic tubes through a mouse MAb to the TSHR; also called thyroid stimulating hormone receptor
Description: (§1) Binding inhibition assays were carried out using TSHR coated tubes as described in WO2004/050708A2. […] After aspiration, the tubes were washed and 100 μL of ¹²⁵I-labelled protein (5×10⁴ cpm) added and incubated for 1 hour at room temperature with shaking. The tubes were then aspirated, washed and counted in a gamma counter. Inhibition of labelled protein binding was calculated as 100×[1−(cpm bound in the presence of test material/cpm bound in the presence of control material)].

[2] = target: T1, human TSH receptor (full length), …; assay: inhibition of 125I-K1-70 Fab (competitor) binding to TSHR coated tubes; 0.001 µg/mL in HBD serum pool
Description: as §1

[3] = target: T1, human TSH receptor (full length), …; assay: inhibition of 125I-K1-70 Fab (competitor) binding to TSHR coated tubes; 0.3 µg/mL in assay buffer
Description: as §1

[4] = target: T1, human TSH receptor (full length), …; assay: inhibition of 125I-K1-70 Fab (competitor) binding to TSHR coated tubes; 0.001 µg/mL in assay buffer
Description: as §1

[5] = target: T1, human TSH receptor (full length), …; assay: inhibition of 125I-K1-70 Fab (competitor) binding to TSHR coated tubes; 30 µg/mL in assay buffer
Description: as §1

[6] = target: T1, human TSH receptor (full length), …; assay: inhibition of 125I-K1-70 Fab (competitor) binding to TSHR coated tubes; 0.003 µg/mL in assay buffer
Description: as §1

[7] = target: T1, human TSH receptor (full length), …; assay: inhibition of 125I-K1-70 Fab (competitor) binding to TSHR coated tubes; 0.1 µg/mL in assay buffer
Description: as §1

[8] = target: T1, human TSH receptor (full length), …; assay: inhibition of 125I-K1-70 Fab (competitor) binding to TSHR coated tubes; 1 µg/mL in HBD serum pool
Description: as §1

[9] = target: T1, human TSH receptor (full length), …; assay: inhibition of 125I-K1-70 Fab (competitor) binding to TSHR coated tubes; 0.03 µg/mL in assay buffer
Description: as §1

[10] = target: T1, human TSH receptor (full length), …; assay: inhibition of 125I-K1-70 Fab (competitor) binding to TSHR coated tubes; 0.1 µg/mL in HBD serum pool
Description: as §1

[11] = target: T1, human TSH receptor (full length), …; assay: inhibition of 125I-K1-70 Fab (competitor) binding to TSHR coated tubes; 100 µg/mL in HBD serum pool
Description: as §1

[12] = target: T1, human TSH receptor (full length), …; assay: inhibition of 125I-K1-70 Fab (competitor) binding to TSHR coated tubes; 0.01 µg/mL in assay buffer
Description: as §1

[13] = target: T1, human TSH receptor (full length), …; assay: inhibition of 125I-K1-70 Fab (competitor) binding to TSHR coated tubes; 0.3 µg/mL in HBD serum pool
Description: as §1

[14] = target: T1, human TSH receptor (full length), …; assay: inhibition of 125I-K1-70 Fab (competitor) binding to TSHR coated tubes; 0.01 µg/mL in HBD serum pool
Description: as §1

[15] = target: T1, human TSH receptor (full length), …; assay: inhibition of 125I-K1-70 Fab (competitor) binding to TSHR coated tubes; 10 µg/mL in assay buffer
Description: as §1

[16] = target: T1, human TSH receptor (full length), …; assay: inhibition of 125I-K1-70 Fab (competitor) binding to TSHR coated tubes; 0.03 µg/mL in HBD serum pool
Description: as §1

[17] = target: T1, human TSH receptor (full length), …; assay: inhibition of 125I-K1-70 Fab (competitor) binding to TSHR coated tubes; 1 µg/mL in assay buffer
Description: as §1

[18] = target: T1, human TSH receptor (full length), …; assay: inhibition of 125I-K1-70 Fab (competitor) binding to TSHR coated tubes; 3 µg/mL in HBD serum pool
Description: as §1

[19] = target: T1, human TSH receptor (full length), …; assay: inhibition of 125I-K1-70 Fab (competitor) binding to TSHR coated tubes; 10 µg/mL in HBD serum pool
Description: as §1

[20] = target: T1, human TSH receptor (full length), …; assay: inhibition of 125I-K1-70 Fab (competitor) binding to TSHR coated tubes; 30 µg/mL in HBD serum pool
Description: as §1

[21] = target: T1, human TSH receptor (full length), …; assay: inhibition of 125I-K1-70 Fab (competitor) binding to TSHR coated tubes; 0.003 µg/mL in HBD serum pool
Description: as §1

[22] = target: T1, human TSH receptor (full length), …; assay: inhibition of 125I-K1-70 Fab (competitor) binding to TSHR coated tubes; 100 µg/mL in assay buffer
Description: as §1

| Binder | Inhibition of binding (%) [1] [%] | Inhibition of binding (%) [2] [%] | Inhibition of binding (%) [3] [%] | Inhibition of binding (%) [4] [%] | Inhibition of binding (%) [5] [%] | Inhibition of binding (%) [6] [%] | Inhibition of binding (%) [7] [%] | Inhibition of binding (%) [8] [%] | Inhibition of binding (%) [9] [%] | Inhibition of binding (%) [10] [%] | Inhibition of binding (%) [11] [%] | Inhibition of binding (%) [12] [%] | Inhibition of binding (%) [13] [%] | Inhibition of binding (%) [14] [%] | Inhibition of binding (%) [15] [%] | Inhibition of binding (%) [16] [%] | Inhibition of binding (%) [17] [%] | Inhibition of binding (%) [18] [%] | Inhibition of binding (%) [19] [%] | Inhibition of binding (%) [20] [%] | other results |
| --- | --- | --- | --- | --- | --- | --- | --- | --- | --- | --- | --- | --- | --- | --- | --- | --- | --- | --- | --- | --- | --- |
| B1 | 93.3 | -6.8 | 92.6 | 5.9 | 94.5 | 11.4 | 83.6 | 89.4 | 63.1 | 51 | 96 | 30.3 | 77.7 | 2.2 | 94 | 17.2 | 93.1 | 93 | 94.8 | 95.6 | Inhibition of binding (%) [21]: -9.4%; Inhibition of binding (%) [22]: 95.3% |
| B2 | 80.6 | -8.2 | 75.9 | 3.8 | 83.2 | 5 | 62.9 | 78.7 | 38.8 | 36.9 | 85.7 | 16.7 | 63.9 | -0.8 | 80.8 | 7.9 | 79 | 82.6 | 83.2 | 85.4 | Inhibition of binding (%) [21]: -9.6%; Inhibition of binding (%) [22]: 86.4% |
| B3 | 95.5 | -8.8 | 94.2 | 5.5 | 97.7 | 27.7 | 93.5 | 94.1 | 89 | 66.5 | 97.7 | 66.2 | 97 | 10.6 | 96.9 | 37.8 | 95.2 | 96.2 | 96.6 | 97.4 | Inhibition of binding (%) [21]: -0.8%; Inhibition of binding (%) [22]: 97.7% |
| B4 | 93.5 | -2.5 | 92.7 | 11.9 | 95.1 | 40 | 92.2 | 94.2 | 89 | 81.9 | 96.3 | 75.6 | 91.4 | 25.3 | 93.6 | 57.2 | 93.5 | 94.9 | 94.8 | 95.7 | Inhibition of binding (%) [21]: 2.5%; Inhibition of binding (%) [22]: 96.7% |
